Tests used:
[1] = target: T1, BldD (Saccharopolyspora erythraea A226?) (UniProt A4FBF9); assay: EMSA; conditions: 10 mM Tris pH 7.5, 5 mM MgCl2, 50 mM EDTA (so in the source), 60 mM KCl, 10 mM DTT, 10% glycerol, 150 ng probe (legend: 10 ng), 0.5-4 uM protein; on ice 10 min; 8% …
T1 sequence: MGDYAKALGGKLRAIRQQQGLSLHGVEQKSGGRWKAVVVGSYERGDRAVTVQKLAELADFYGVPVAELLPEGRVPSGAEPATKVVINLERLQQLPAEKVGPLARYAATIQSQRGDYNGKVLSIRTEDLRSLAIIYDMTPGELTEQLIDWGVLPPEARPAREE

[2] = target: T2, SACE_7301 (Saccharopolyspora erythraea A226?) (UniProt A4FQY4); assay: EMSA; conditions: 10 mM Tris pH 7.5, 5 mM MgCl2, 50 mM EDTA (so in the source), 60 mM KCl, 10 mM DTT, 10% glycerol, 150 ng probe (legend: 10 ng), 0.5-4 uM protein; on ice 10 min; 8% …
T2 sequence: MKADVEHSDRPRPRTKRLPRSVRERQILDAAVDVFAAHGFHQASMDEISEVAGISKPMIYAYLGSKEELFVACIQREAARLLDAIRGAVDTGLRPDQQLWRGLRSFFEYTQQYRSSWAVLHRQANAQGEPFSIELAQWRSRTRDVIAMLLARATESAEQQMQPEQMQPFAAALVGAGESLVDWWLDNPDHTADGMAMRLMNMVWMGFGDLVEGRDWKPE

GCGAGTGTCCGTTCGAGTGGCGGCTTGCGCCCGATGCTAGTCGCGGTTGATCGGCGATCGCAGGTGCACGCGGTCGATCTTGACGGCTGGCGAGAGGTGCGGGGAGGATCTGACCGACGCGGTCCACACGTGGCACCGCGATGCTGTTGTGGGCTGGACAATCGTGCCGGTTGGTAGGATCCAGCG (double strand) [PermE promoter fragment]
binding [1]: binds
binding [2]: binds

GCGTCCCCCTACTCGACGACCACGCAATGGGCGAACAATATAGGAAGGATCAAGAGGTTGACATCGCCTCGTCGAGCCAACGAACCTGTGAACATCTGCATGTTGACAAGATCAACGGCGGCTACCTACTGTGGTGGCCCAGTGACGGGTTGCCGCACATCGCGCTGGGGAGATTCTTTGAATTTCGCCCGTAGCACCGACCTGGAAAGCGAGCAAATGCTCCG (double strand) [PeryAI promoter fragment]
binding [1]: binds
binding [2]: binds

Reference: PMC4258057
